# Data from article PMC11741606 (2025).
# Positions count from the first letter of the chain named.
# T1: dAPN-H751R ectodomain, hFc-tagged (dog (Canis lupus familiaris), UniProt P79143 33-975, H751R)
# T1 sequence: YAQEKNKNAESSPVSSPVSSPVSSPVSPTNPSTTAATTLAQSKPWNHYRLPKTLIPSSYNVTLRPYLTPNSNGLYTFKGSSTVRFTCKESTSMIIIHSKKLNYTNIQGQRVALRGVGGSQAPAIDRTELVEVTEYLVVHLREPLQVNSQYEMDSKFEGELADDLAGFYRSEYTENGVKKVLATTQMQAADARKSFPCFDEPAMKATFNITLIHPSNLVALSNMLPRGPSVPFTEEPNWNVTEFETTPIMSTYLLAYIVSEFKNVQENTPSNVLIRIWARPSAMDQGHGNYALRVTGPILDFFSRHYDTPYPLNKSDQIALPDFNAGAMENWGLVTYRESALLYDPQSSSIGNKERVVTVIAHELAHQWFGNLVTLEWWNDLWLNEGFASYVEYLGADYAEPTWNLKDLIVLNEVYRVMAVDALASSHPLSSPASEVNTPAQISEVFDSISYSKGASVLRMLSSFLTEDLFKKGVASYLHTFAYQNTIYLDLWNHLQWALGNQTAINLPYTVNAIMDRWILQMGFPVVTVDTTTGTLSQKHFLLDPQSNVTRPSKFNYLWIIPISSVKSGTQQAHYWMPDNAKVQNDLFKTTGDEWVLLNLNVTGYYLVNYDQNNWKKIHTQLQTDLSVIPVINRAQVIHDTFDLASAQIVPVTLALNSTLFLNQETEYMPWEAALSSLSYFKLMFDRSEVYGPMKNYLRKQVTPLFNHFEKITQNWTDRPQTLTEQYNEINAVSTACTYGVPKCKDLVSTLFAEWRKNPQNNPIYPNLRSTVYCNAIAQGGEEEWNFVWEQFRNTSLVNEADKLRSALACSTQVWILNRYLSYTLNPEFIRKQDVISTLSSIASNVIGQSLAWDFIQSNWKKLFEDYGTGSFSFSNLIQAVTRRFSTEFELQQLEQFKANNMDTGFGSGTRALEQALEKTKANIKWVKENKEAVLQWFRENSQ
# T2: dAPN-Q746K ectodomain, hFc-tagged (dog (Canis lupus familiaris), UniProt P79143 33-975, Q746K)
# T2 sequence: T1 sequence with Q714K, R719H
# B1: TGEV RBD (receptor-binding domain of the transmissible gastroenteritis coronavirus spike protein) (domain or fragment)
# chain: TANLNNGFYPVSSSEVGLVNKSVVLLPSFYTHTIVNITIDLGMKRSGYGQPIASTLSNITLPMQDNNTDVYCIRSDQFSVYVHSTCKSSLWDNIFKRNCTDVLDATAVIKTGTCPFSFDKLNNYLTFNKFCLSLSPVGANCKFDVAARTRTNEQVVRSLYVIYEEGDNIVGVPSD
# Tests used:
# Assay in all cases: SPR
# [1] = target: T1, dAPN-H751R ectodomain, hFc-tagged
# [2] = target: T2, dAPN-Q746K ectodomain, hFc-tagged
# [3] = target: giant panda aminopeptidase N ectodomain fused with the Fc domain of human IgG (giant panda (Ailuropoda melanoleuca))
# [4] = target: horse aminopeptidase N ectodomain fused with the Fc domain of human IgG (horse (Equus caballus))
# [5] = target: Arabian camel aminopeptidase N ectodomain fused with the Fc domain of human IgG (Arabian camel (Camelus dromedarius))
# [6] = target: red fox aminopeptidase N ectodomain fused with the Fc domain of human IgG (red fox (Vulpes vulpes))
binder,measurement,setting,value
B1,Kd,[1],241 nM
same,Kd,[2],333 nM
same,Kd,[3],765 nM
same,Kd,[4],2350 nM
same,Kd,[5],6.36 µM
same,Kd,[6],462 nM
